Measured values taken from US20240288446A1 (H PITAUX UNIVERSITAIRES DE STRASBOURG, published 2024).

Molecular target: T1, α1-proteinase inhibitor (human, UniProt P01009 25-418)
T1 construct: also called α1-PI; α1PI
Test: ELISA of HNE-α1-PI complexes in human plasma

T1 sequence (P01009 25-418 limits assumed): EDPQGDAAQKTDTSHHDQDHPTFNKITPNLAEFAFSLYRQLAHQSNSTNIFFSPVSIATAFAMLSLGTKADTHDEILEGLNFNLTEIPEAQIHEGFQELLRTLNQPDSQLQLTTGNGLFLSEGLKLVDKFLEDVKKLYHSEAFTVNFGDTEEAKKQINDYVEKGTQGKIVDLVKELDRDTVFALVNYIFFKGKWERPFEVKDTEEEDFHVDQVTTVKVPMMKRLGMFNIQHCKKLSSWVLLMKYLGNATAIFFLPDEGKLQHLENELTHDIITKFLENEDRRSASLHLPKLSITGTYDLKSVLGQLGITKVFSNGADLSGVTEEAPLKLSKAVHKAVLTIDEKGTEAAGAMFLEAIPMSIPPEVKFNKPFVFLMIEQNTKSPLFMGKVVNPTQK

- binding result: binds
B1: Human neutrophil elastase (enzyme, UniProt P08246 30-247, looked up)
chain: IVGGRRARPHAWPFMVSLQLRGGHFCGATLIAPNFVMSAAHCVANVNVRAVRVVLGAHNLSRREPTRQVFAVQRIFENGYDPVNLLNDIVILQLNGSATINANVQVAQLPAQGRRLGNGVQCLAMGWGLLGRNRGIASVLQELNVTVVTSLCRRSNVCTLVRGRQAGVCFGDSGSPLVCNGLIHGIASFVRGGCASGLYPDAFAPVAQFVNWIDSIIQ
notes: Tested free (purified, in supernatants or in plasma) and as an HNE-DNA complex on NETs; also called HNE; leukocyte elastase
